Measured values published in patent publication US20240139115A1, “Novel Method for Preparation of Nanoparticles Comprising Cell Penetrating Peptides” (CELLPEPT SWEDEN AB, priority 2021, published 2024).
Where no end group is shown, it is not given here. [ ]: non-standard residue; d: D form. The star is where a group is joined. Stearoyl = CCCCCCCCCCCCCCCCCC(=O)*; R8 = C=CCCCCCC[C@@](C)(N)C(=O)O; Orn = NCCC[C@H](N)C(=O)O

What was measured:
[1] = test system: human primary keratinocytes; test: Transfection with EGFP-coding mRNA/CPP complexes; type: cell-based; details: CPP solutions in mixture of organic solvents; 200 ng mRNA, 520 nM CPP, 20 h; FIG. 3
Description: The complexes of 200 ng of mRNA with 520 nM CPP were added into culture medium above cells per well of 24-well plate for 20 h. For the delivery and expression of EGFP, mRNA complexes were assembled with NF71 (dissolved at 1 mM concentration in ethanol/DMSO/trimethylene carbonate 78/20/2) or PF14 (PF14o—dissolved at 1 mM concentration in ethanol/DMSO, or in water—PF14w).
The CPP nanoparticles with mRNA are formed in a similar manner with pDNA. mRNA at concentration 10 μg/ml is complexed with 10 μM PF14 CPP in Milli-Qwater. If required, Ca or Mg ions are incorporated in CPP-mRNA nanoparticles as described above. Unlike other particle solutions described above, CPP-mRNA 10× solutions are directly added into growth medium where cells have been incubated. The preferred N/P ratio (“charge ratio”) of CPP to mRNA is 2. Depending on the charge of used CPP, type of cells and experiment, N/P ratio can be varied in the range 1.5 to 4. For delivery of mRNA into human primary cells, preferentially Mg ions are incorporated in CPP nanoparticles.

[2] = Dynamic light scattering (DLS) size and polydispersity of CPP particles after dilution in water; type: physicochemical; details: PF14 in isopropanol/DMSO/trimethylene carbonate (90/9/1), further 10-fold dilution
Description: (§1) The diameter and zeta potential of CPP nanoparticles may be measured using dynamic light scattering (DLS) or nanoparticle tracking analysis system (NTA) (1), (4) (using 0.01 mM peptide). The morphology of NP is analysed by transmission electron microscopy (TEM) (11), scanning electron microscopy (SEM) or atomic force microscopy (AFM) using 0.1 or 0.01 mM peptide solution.
The physical characteristics (diameter and zeta-potential) of the peptide micelles/aggregates/nanoparticles were analysed by dynamic light scattering (DLS) using a ZetaView (Particle Metrix, Germany) or ZetasizerNano ZS apparatus (Malvern Instruments, UK) at 10 μM concentration in water.
DLS analysis of the size of CPP particles forming after 100-fold dilution of 1 mM peptide solution in Milli-Q water or organic solvents (ambient temperature) is provided in Table 1.
The optimal size of nanoparticles to be used for drug delivery in vivo is in range of 100 nm (between 10 and 200 nm), and the lack of large aggregates is highly essential. In order to analyse the size of CPP clusters that form in water, DLS traces were measured by Malvern Zetasizer Nano ZS. Four consecutive measurements were performed with each sample for the calculation of the size and polydispersity of the forming CPP particles.

[3] = Transmission electron microscopy (TEM) of size and shape of CPP particles; type: physicochemical
Description: as §1
Analysis of the size and shape of CPP nanoparticles and their complexes with cargo nucleic acids by transmission electron microscopy (TEM) confirmed data from DLS analysis. Depending on the solvent used for preparation of 1 mM peptide solutions, the particles of CPP were largely different.

HeLa pLuc705 cells = test: Splicing correction luciferase assay (Kole's assay); details: hPep3 dissolved in the mixture of dimethyl sulfoxide; 100 nM SCO-705, 500 nM peptide, 24 h; FIG. 5

Substance	transfection of EGFP mRNA and expression of EGFP [1]	average diameter of uniform NP [2]	aggregates present in specimen ([3]; PF14 in isopropanol/DMSO/trimethylene carbonate (90/9/1) at 1 mM, diluted in water to 0.1 mM, TEM)	diameter of spherical nanoparticles ([3]; PF14 in isopropanol/DMSO/trimethylene carbonate (90/9/1) at 1 mM, quick dilution in water to 0.1 mM, TEM)	larger PF14 particles observed in TEM images ([3]; PF14 in isopropanol/DMSO/trimethylene carbonate (90/9/1), 0.1 mM in water)	efficiency of nanoparticles with SCO cargo compared with water-dissolved hPep3 (HeLa pLuc705 cells)
NickFect 71 (Stearoyl-HHYHHGXILLKALKALAKAIL-NH2; not fully specified (residue 7); printed as HHYHHGObILLKALKALAKAIL; also: Gly6 joined to the Orn7 side-chain delta-amino instead of its alpha-amino) [NF71]	enable transfection	–	–	–	–	–
PepFect 14 (Stearoyl-AGYLLGKLL[Orn][Orn]LAAAAL[Orn][Orn]LL-NH2) [PF14, Stearyl (C18)-…OOLAAAALOOLL, C-terminal amide]	enable transfection	~100 nm	No aggregates	40-60 nm	100-150 nm	–
hPep3 (L[R8][dK]LAKA[R8]AKLLKA[R8]AKAL; staple (positions not given here); also: three R8 olefin residues, staple pairing not given here)	–	–	–	–	–	same efficiency
